Assay: soluble on expression in E. coli; label from the status in PepcDB or PDB records
For “MAGDPMTPTQNVPEDRIQIGQLRSAYGLNGWLWVYSNTEPMSNMFDYLPWFIETKAGWQTVDVKRWKPHGKGLVVSLKNVSDRNAAESLIGSTIWVAKSQLPKTDVDEYYWSDLKGLTVLGLDEEEQEVNLGQIHELFETGANDVMVVRATADSVDAEERMIPWHKDVVQRVDLEAGRIYVNWGVDYLEHHHHHH”, the “soluble on expression in E. coli” value was “soluble”. With “MQPGGDMSALLAQAQQMQQKLLEAQQQLANSEVHGQAGGGLVKVVVKGSGEVIGVTIDPKVVDPDDIETLQDLIVGAMRDASQQVTKMAQERLGALAGAMRPPAPPAAPPGAPGMPGMPGMPGAPGAPPVPGI” the “soluble on expression in E. coli” value was “not soluble”. In the case of “MGSDKIHHHHHHAQIADRVYKTDYHIDPEKARELSVELDNISFFKDNEYTGKFTKGYSLPGLWVQGKAVYYPLRNIKLEAGVHMLIYHGANKYPSMAYQDIAYWKGDQYQKGVHVLPYFRAQMALSDHVNIVLGNIYGASNHNLIEPLYNPELNLTCDPEAGLQLLYDSKAFDLDVWVNWQSFIFREDVHQEAFTVGISSRLKYNDPASRFHFYTPVQGLVQHRGGEIDTIFNNSVQTLMNGAIGVGGVWNTGHRIFKNLNVELDATGYYQQAGEIWPFDSGYGLYARASADIYDFRVKTSYWTCEDFISMFGSPFFGAASMIDEGVTFDRPQMIYLGVEYSRQLAKGFSIGVDVDVFHHLSGDMNDADGVKQPMGSATSFTAGVYMRINPSFLIKKF”, the “soluble on expression in E. coli” value is reported as “not soluble”. With “MSLKRFVAEKMDNQDHWDLNIAPLTNKHIAIVGAGPAGAQAAIELRRQGHEVTIYEKLDVYGGMMRVGIPEYRLPRDVIDFEYSYLAMLGIKTQFGVEIGKDISFDTLRSEHDAVILAHGAHVGSIIPLPGHDNDGVFSAVEYLKEISETRQFPRACKRVMVIGGGDVAMDCARSSWRIGASDVYQCSLESLESLPASQIEIDESLEEGVEFNAGWGPVAIEHENGKVTGITIKKVLSIFDEQGNFAPQYSEESKTISVDTVVFATGQIVADITDGALEQTRGGRYVVDKQTLASSLEDVFVAGDACGGNIVIEAMALGRKAAMSVERFLTARPLTEDRDFEQEYSYSSRLDVPLPKGTVDTPRLHGELRDAEERKQDFAQVDLGFTEEQIKQEASRCLQCSCKLCMTECIMMNDFSDCPKTIFSDFVNNKSMDPLLAYSCNACDQCTIVCPKDFPMKEMFLGARTDFVKANNGESPMPGHKAINMHQKLGFSKIFTMAKRAVSTKEGHHHHHH” the “soluble on expression in E. coli” value was “soluble”. In the case of “MAHHHHHHMNEVVPHVAELMTDQYANFLIQKLFDMMPQDVRYKVARVAAPKIISIALTPHGTFSVQKMVETIASREEMDILREALSKDVVRLVKDAHGNHVIQKVLQRFSHADKEFIYAAVGSDCISIAKNKQGCCVLQRCLEYASCSQRATLVNQILRCCLQIAEDPFGNYVLQYVLESNDSKTTDTIAIAFLPHLVQLCMNKFSSNVIEKVLRGASQPVQEMYVETMCSPDVVSRLIQDDFGNYVLQTALTICSSAQAESLVSAVRPLMPIIRNAPYAKKLEGKIDGIVHKTAGNDRNSFAEYEKSRQGEMNEQNCDILLPHHARESSVAPHQQLSS”, the “soluble on expression in E. coli” value is reported as “not soluble”. For “MGSDKIHHHHHHMMSDASLPALTLPPALRRVLPAARWERVTEGESGAGVWRSTRFVVKVQSRTLYPASTLLQERERLRWFAGRLPVPQVVAYEDDGEQEYLAMTRLPGIAMSHPDAALHPERMVNLLARALRELHALPVRDCPFNMSLGVRLKLARERVAAGVVDESDFDEERQGQSAVQVFNQLARTRPAEEDLVVTHGDACLPNVIVQGEYVEGLIDLGRAGIADRHMDLALAWRSTRRNLGATYAGMLLDLYGRELVDEGKLAYYQLLDELF”, the “soluble on expression in E. coli” value was “not soluble”. In the case of “MASVTEQFNDIISLYSTKLEHTSLRQDSPEYQGLLLSTIKKLLNLKTAIFDRLALFSTNETIDDVSTASIKFLAVDYYLGLLISRRQSNDSDVAQRQSMKLIYLKKSVESFINFLTLLQDYKLLDPLVGEKLGNFKDRYNPQLSELYAQPKNNKDLSGAQLKRKEKIELFQRNKEISTKLHCLELELKNNDEDHDHDELLRELYLMRLHHFSLDTINNIEQNLFECEMLSNFLK”, the “soluble on expression in E. coli” value is reported as “soluble”. For “MSLFLNRLSLPKDYFIDTFLYYSDQDIAQISSYLPESNVSANVPGFKKNFVLKVFDHKIKPGETLSHVAARYQITSETLISFNEIKDVRNIKPNSVIKVPNMKGIVYIVKKNDSISSIASAYNVPKVDILDSNNLDNEVLFLGQKLFIPGGRLPKDFLKEVLGETFIYPVQGVITSGYGYRPDPFTGVISFHNGIDIANLANTPIKASREGVVVTAGFNAGGYGKYIVISHSNGFQTLYAHLNSFAVKVGKKVSRGAVIGYMGSTGYSTGNHLHFTIFKNGKTENPMKYEGHHHHHH”, the “soluble on expression in E. coli” value was “not soluble”. For “MWKWEAENDAKGVVVIAHNILEHTGRYAYVITMLRRNGYHVIMGDLPGQGQTSRANKGQIENFQTYHESLLDWLKIANEYKIPTYVLGVGLGGLILLNLLEKVELPIEGMMLISPMLELQKNGKNRKDKLVSNIGKISKDTRFNVGVEPKDLTRNLEIVEETVNDGLMLKKATYHWYNTINETMKDTMAHIHDIQPMPTLLMYGTKDLIVDTRAIDEFKEKYQTPELYFKAWQGFYHEVHNEPERDEVMRYILTFLNNSVN”, the “soluble on expression in E. coli” value was “not soluble”. For “MTASFPTRVYLLRHAKAAWAAPGERDFDRGLNEAGFAEAEIIADLAADRRYRPDLILSSTAARCRQTTQAWQRAFNEGIDIVYIDEMYNARSETYLSLIAAQTEVQSVMLVGHNPTMEATLEAMIGEDLLHAALPSGFPTSGLAVLDQDDSAASGKNRWRLIDFLAPGK”, the “soluble on expression in E. coli” value was “soluble”. For “YLDLWQTQDAKIRAKLAAVFQAEQNLNEAAIAYCLARALPEETAIFFANSMVVRYAEFFWQLNDQQILPYFNRGANGIDGTLSTALGIAENHSPAVLLTGDLALLHDINGFLTLSKFTGSLTIIVINNQGGGIFEMLPIAEEKDIFEDYFATPQTVEFSKVCDLYGIEYQAIQTKADLMQTCAILPPRGVRLLEVKTNRNQAMTWLKDLFQ”, the “soluble on expression in E. coli” value was “not soluble”. With “MGSDKIHHHHHHAQSIAKGSTPDFSEARTLIKGALENPETKDDAKTWYVAGFIEDQQFSNERTKQVLGQQPDEPVMYEALGSILPYFEKAYELDQLPNEKGKVKPKFTKDIKGILGANHVYYINGGAYYFDQKDYNKAYDFFEQYLKISDMPMFKGEAVAERDSNFMTVQFYAAVAATQLGDSQKAIAALERAKNTDYRASEVYQYLCYEYEQAKDTVNLEKTLEEGLNKFPEEQYFLMSLINNYIYSNRNEKAIEYLNTAIAKDSNNPQLYDVMGRVYETGLKDYAKAEEYFKKALAINPDYIESLSNLGRVYYNQGVNKQGEANMINDAKQYQEELGKAKEFFKQALPYFEKAHQMKPEEREYMTALRGIYYNLNMGDKFDAIEAEMNK” the “soluble on expression in E. coli” value was “not soluble”. For “EDPSLDRPFISEGTTLKDLIYDMTTSGSGSGLPLLVQRTIARTIVLQESIGKGRFGEVWRGKWRGEEVAVKIFSSREERSWFREAEIYQTVMLRHENILGFIAADNKDNGTWTQLWLVSDYHEHGSLFDYLNRYTVTVEGMIKLALSTASGLAHLHMEIVGTQGKPAIAHRDLKSKNILVKKNGTCCIADLGLAVRHDSATDTIDIAPNHRVGTKRYMAPEVLDDSINMKHFESFKRADIYAMGLVFWEIARRCSIGGIHEDYQLPYYDLVPSDPSVEEMRKVVCEQKLRPNIPNRWQSCEALRVMAKIMRECWYANGAARLTALRIKKTLSQLSQQEGIKM”, the “soluble on expression in E. coli” value was “soluble”. For “MGSDKIHHHHHHMKKYHYSQAPLPFVGQKRMFASEFRKVLKRFSDRTVFVDLFGGSGLLSHITKRERPDATVIYNDHDNYRERLENISRTNALLSDLRRLSEGIPRHRMLSKKMHGMFLERIRREESTGFVDYLTISSSLLFSGKYARNIGELGKLNFYNNMRLSDYCCEGYLDGLEVVYCDYRELVDRYRDSPDVVFLIDPPYMATDISTYRMDWKLTDYLDVLLVLEGHPFIYFTSGKSPILDFCRWMEEHPETGNPFKGAGISTLTARMNYSSSYTDIMLYKEMTEAA”, the “soluble on expression in E. coli” value was “not soluble”. For “MTDLPLTGRARPDRRPHTLAEWRAEGGYEAVDRARSMAPAEIIDMVEAAHLNGRGGAGFPAGRKWRFMPERGTSPGEGPSYLIVNGDEMEPGAFKDRFLLEALPHQVIEGAIITARATHADEAIVLIRDEYRPGIAAVERAIHEARDAGLLGDLAIRVHPSAGRYIVGEETALITALEGHRAVPRKRPPFPAQSGLWGRPTTVNNVETISLVPHILSLGPQRFRALSRTEEGGTKLYGVSGRVKRPGLFEAPMGTTARELIERAGGVSGDGQLRAFQPGGGASGFFGPDRLDLPLDFGHVAKAGSMFGTGMLIVLDGTACPVGFLARHMRFYARESCGWCTPCREGLPLVAKILDRFAAGQGRRADLELLQMTAAEAAPRGRSFCDLMGGAMAPLASGLSMFAAEFEARLAEGERALEHHHHHH”, the “soluble on expression in E. coli” value was “not soluble”. For “IKDFNYRIGFNLYDSQSEITKFNNETNLLGTYRKGQKIGEIWGYVTDRFYREDDFNADGTLKEGIPIPKGVGKVYPGDILYKNFDDDASTIWSGKGTADDPGDQRIIGNSTPRFHYGINAGLSWKGFDLSVFLRGVGKRDFWRTDQIAWPTGTWGSLFKETLDFWTPEHTDAYFPRVYANNGVNTASNRWKQTKYLANAAYLKLQNITLSYTLPKTWAKQICFDEVKVFFSGENLHTWDHLPEGLESDMLSKGAWEYPFMKKFSLGFNVTF”, the “soluble on expression in E. coli” value was “not soluble”. For “SEDSGKTFSSEEEEANYWKDLAMTYKQRAENTQEELREFQEGSREYEAELETQLQQIETRNRDLLSENNRLRMELETIKEKFEVQHSEGYRQISALEDDLAQTKAIKDQLQKYIRELEQANDDLERAKRATIMSLEDFEQRLNQAIERNAFLESELDEKENLLESVQRLKDEARDLRQELAVQQKQEKPRTPMPSSVEAERTDTAVQATGSVPSTPIAHRGPSSSLNTPGSFRRGLDDSTGGTPLTPAARISALNIVGDLLRKVGALESKLASCRNLVYDQSPNRTGGPASGRSSKNRDGGERRPSSTSVPLGDKGLDTSCRWLSKSTTRSSSSC”, the “soluble on expression in E. coli” value was “soluble”. With “MSLKANNLLSQFGDHRQRVQSAITAVCEGRGILLVDDENRENEGDLIFSAQSMTEADMAIMIRHCSGIVCLCITEEKARQLNLPLMVEQNTSKYGTAFTISIEAAEGVTTGVSAADRIQTIRTAIAPNATPESLHHPGHIFPLIARSGGIKERSGHTEGSIDLMKLAGLAPCAVLCELTNDDGTMARLPEIIKFGLEHKYPVVTINDLKEYQTAPDFLPKLVGSFSCPAAENPTTAIMEAAFRHHYMHYRYINCEVGPENLAAAIQGAKAMGWRGFNCSLPNKVEIIRYLDELGESAKIIGAVNTVVIGDDQRATGENTDGKGFVKAISEIITIQDKKIALLGAGGAARAIAVEMALAGVKEITILNRNRDKGQALADLLNSQTVATARFVLWDHPYRFSTDIDIVINATSVGLYSNVDQRLNIDTDTLLPHMVVADCIPNPVYTQLLRDAVRRGCCHVLPGMKMLVYQAVIAIKYWSGVDVDPDIMLEKLKEVVKEGHHHHHH” the “soluble on expression in E. coli” value was “soluble”. In the case of “AQLQNLVLKDREATPNDHTFVPRDIRDNVGEVVESTGVPIGESRFTISLRKTSNGRYKSTLKLVVPVVQSQTVNGIVTPVVVRTSYVTVDFDYDARSTTKERNNFVGMIADALKADKMLVHDTIVNLQGVY”, the “soluble on expression in E. coli” value is reported as “soluble”. With “MSLEEATVEDIMIPRTEIVGIDLDDPWSETLERLTNSQYTRMPVYRGTVDHVMGFVHVRRIVGDLVRGNFTPEDLQARLKEPFFIPEGTGLHTQLLKFQRQRERVGLVVDEYGEILGLAALDDILEEIVGEFTTDPGTLTRSINRQDDGTYLVEGSATVRELNRVLGWELETSGPKTLNGLILERLETIPEAGTSLLIDGYPVTIVQTQGNRVKTAEIQPERPPSVQREGHHHHHH” the “soluble on expression in E. coli” value was “soluble”.

— the DeepSol protein solubility set
